From patent US20060235215A1 (published 2006) come the findings set out here.

What all share (assay): yeast two-hybrid
Test [1] deals with T1, O. sativa Serine/Threonine Protein Phosphatase PP2A-2, Catalytic Subunit, bait fragment aa 150-308 (Oryza sativa, UniProt A2XN40 150-307).
T1 construct: bait; also called OsPP2A-2; PN20254
T1 sequence: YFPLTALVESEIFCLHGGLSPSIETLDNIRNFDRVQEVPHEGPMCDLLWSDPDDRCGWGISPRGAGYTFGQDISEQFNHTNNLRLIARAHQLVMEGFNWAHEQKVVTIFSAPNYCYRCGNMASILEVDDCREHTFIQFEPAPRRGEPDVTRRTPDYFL

In test [2] the target is T2, Hypothetical Protein 003118-3674 Similar to Lycopersicon esculentum Calmodulin, bait fragment aa 75-149 (Oryza sativa, UniProt Q84VG0 75-148).
T2 construct: bait; also called PN20551
T2 sequence: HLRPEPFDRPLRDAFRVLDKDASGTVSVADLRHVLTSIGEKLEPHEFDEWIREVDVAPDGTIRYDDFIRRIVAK

The target of test [3] is T3, O. sativa Chloroplast Ribulose Bisphosphate Carboxylase, Large Chain, prey clone aa 287-462 (Oryza sativa, UniProt P0C510 287-462).
T3 construct: prey; AD fusion; input trait library; also called OsRBCL; PN23426
T3 sequence (P0C510 287-462): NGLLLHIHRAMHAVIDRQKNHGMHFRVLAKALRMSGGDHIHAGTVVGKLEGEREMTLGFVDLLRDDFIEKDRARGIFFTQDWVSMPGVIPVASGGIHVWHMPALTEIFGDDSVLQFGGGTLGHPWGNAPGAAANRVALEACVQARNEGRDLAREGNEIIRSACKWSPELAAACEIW

The target of test [4] is T4, Hypothetical Protein 006819-2510, Similar to Hemerocallis Senescence-Related Protein 5, bait fragment aa 1-150 (Oryza sativa).
T4 construct: bait; also called Os006819-2510; PN20462
T4 chain: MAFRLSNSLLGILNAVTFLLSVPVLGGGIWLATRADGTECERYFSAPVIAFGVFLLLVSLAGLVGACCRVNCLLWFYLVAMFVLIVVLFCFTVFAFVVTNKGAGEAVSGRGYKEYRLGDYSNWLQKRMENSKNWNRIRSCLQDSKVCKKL

The target in test [5] is T5, Pyruvate orthophosphate dikinase-like PN20674, prey clone aa 64-263 (Oryza sativa, UniProt Q6AVA8 64-263).
T5 construct: prey; AD fusion; input trait library
T5 sequence: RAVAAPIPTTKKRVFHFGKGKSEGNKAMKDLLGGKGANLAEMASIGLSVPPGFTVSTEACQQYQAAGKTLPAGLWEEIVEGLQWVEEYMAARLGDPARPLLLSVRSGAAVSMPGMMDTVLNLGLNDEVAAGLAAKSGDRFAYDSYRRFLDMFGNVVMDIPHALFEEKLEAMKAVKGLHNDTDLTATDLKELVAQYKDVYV

For test [6], the target named is T6, Pyruvate orthophosphate dikinase-like PN20674, prey clone aa 71-298 (Oryza sativa, UniProt Q6AVA8 71-298).
T6 construct: prey; AD fusion; input trait library
T6 sequence: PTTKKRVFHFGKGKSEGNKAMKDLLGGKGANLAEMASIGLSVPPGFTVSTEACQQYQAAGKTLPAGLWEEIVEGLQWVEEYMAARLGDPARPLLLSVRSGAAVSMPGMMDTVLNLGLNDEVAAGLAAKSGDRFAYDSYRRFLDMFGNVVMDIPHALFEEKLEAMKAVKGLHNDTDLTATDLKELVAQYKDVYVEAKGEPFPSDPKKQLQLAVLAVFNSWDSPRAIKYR

Test [7] addresses T7, Auxin induced protein-like PN24061, prey clone aa 34-236 (Oryza sativa, UniProt A2XLV9 34-236).
T7 construct: prey; AD fusion; output trait library
T7 sequence: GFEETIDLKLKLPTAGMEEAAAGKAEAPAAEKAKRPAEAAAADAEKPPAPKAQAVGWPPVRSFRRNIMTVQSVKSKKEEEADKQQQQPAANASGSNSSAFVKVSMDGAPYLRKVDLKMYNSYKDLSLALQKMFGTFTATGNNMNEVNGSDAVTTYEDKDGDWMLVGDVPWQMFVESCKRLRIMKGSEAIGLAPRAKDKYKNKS
On the procedure: Yeast carrying the target gene construct was combined with yeast carrying the activation domain library. The two yeast strains mated to form diploid yeast and were plated on media that selected for expression of one or more Ga14p-responsive reporter genes. Thus, both hybrid proteins (i.e., the target “bait” protein and the activation domain “prey” protein) were expressed in a yeast reporter strain where an interaction between the test proteins results in transcription of the reporter genes […]. Colonies that arose after incubation were selected for further characterization. The activation domain plasmid was isolated from each colony obtained in the two-hybrid search. The sequence of the insert in this construct was obtained by sequence analysis (e.g., Sanger's dideoxy nucleotide chain termination method; see Ausubel et al., 1988, including updates up to 2002). Thus, the identity of positives obtained from these searches was determined by sequence analysis against proprietary and public (e.g., GENBANK®) nucleic acid and protein databases.
The rice SGT1 protein shares 74 and 75% amino acid sequence similarity with two Arabidopsis thaliana SGT1 homologs and 45% amino acid sequence similarity with Saccharomyces cerevisiae SGT1. In yeast, SGT1 is required for cell-cycle progression at the G1/S-phase and G2/M-phase transitions. In A. thaliana, SGT1b interacts with Rar1 and mediates disease resistance. Thus, in plants, SGT1 likely controls processes that are fundamental to disease resistance and development. The rice OsSGT1 protein was chosen as a bait for these interaction studies based on its potential relevance to disease resistance and development.

The target of test [8] is T8, Soluble Starch Synthase, prey clone aa 68-270 (Oryza sativa, UniProt A2Y9M4 68-270).
T8 construct: prey; AD fusion; input trait library; also called OsSSS; PN19701
T8 sequence: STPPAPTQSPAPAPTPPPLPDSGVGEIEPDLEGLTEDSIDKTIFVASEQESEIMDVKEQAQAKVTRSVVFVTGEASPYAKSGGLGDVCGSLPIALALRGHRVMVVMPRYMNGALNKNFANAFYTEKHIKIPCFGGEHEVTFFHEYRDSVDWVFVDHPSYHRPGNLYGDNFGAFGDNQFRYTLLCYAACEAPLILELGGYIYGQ

Test [9] addresses T9, Soluble Starch Synthase, prey clone aa 97-263 (Oryza sativa, UniProt A2Y9M4 97-263).
T9 construct: prey; AD fusion; output trait library; also called OsSSS; PN19701
T9 sequence: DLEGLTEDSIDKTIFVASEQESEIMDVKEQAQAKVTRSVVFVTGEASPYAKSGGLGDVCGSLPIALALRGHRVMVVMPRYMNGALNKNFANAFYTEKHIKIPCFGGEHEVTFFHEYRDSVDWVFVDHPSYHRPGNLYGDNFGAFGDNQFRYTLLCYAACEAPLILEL

Test [10] concerns the target T10, Elicitor responsive protein, bait fragment aa 23-120 (Oryza sativa, UniProt Q0JBH9 23-120).
T10 construct: bait; also called OsERP; PN20696
T10 sequence: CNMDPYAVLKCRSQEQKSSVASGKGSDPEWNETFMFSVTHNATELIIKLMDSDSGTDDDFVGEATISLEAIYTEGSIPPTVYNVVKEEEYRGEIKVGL

B1: Novel Protein PN24162, Porin-like, Voltage-Dependent Anion Channel Protein, prey clone aa 28-164 (other)
chain: QKLTVSTVSSSGVGLTSTAVKKGGLYTLDVSSVYKYKSTLVDVKVDTESNISTTLTVFDVLPSTKLVTSVKLPDYNSGKVEMQYFHENASFATAVGMKPSPVVEFSGTAGAQGLAFGAEAGFDTATGKFTKYSAAIG
notes: prey; AD fusion; output trait library; also called OsPN24162
On to B1, for which the binding result in [1] is reported as “binds”.

B2: Oryza sativa Putative Myosin, prey clone aa 824-935 (other)
chain: SLARKHRAAIILQRNLKCWLARRYFVNIRKASVVIQSGIRGCLVRRCAGNVDLLNVLREFESKKEAEGDQILIKASFLAELQRRILKAEATVREKDEENEMLQQRLQQYENR
notes: prey; AD fusion; output trait library; also called OsPN23878
Take B2: the binding result in test [2] is listed as “binds”.

B3: O. sativa 14-3-3 Protein Homolog GF14-c, bait fragment aa 1-150 (other)
chain: MSREENVYMAKLAEQAERYEEMVEYMEKVAKTVDVEELTVEERNLLSVAYKNVIGARRASWRIVSSIEQKEEGRGNEEHVTLIKEYRGKIEAELSKICDGILKLLDSHLVPSSTAAESKVFYLKMKGDYHRYLAEFKTGAERKEAAESTM
notes: bait; also called OsGF14-c; PN12464
Consider B3, for which, in test [3], the binding result was “binds”.

B4: Oryza sativa Putative Myosin, prey clone aa 685-888 (other)
chain: IYEQGLVLQQLKCCGVLEVVRISRSGYPTRMTHQKFARRYGFLLLEDVASQDPLSVSVAILHQFNILPEMYQVGYTKLFFRTGQIGKLEDTRNRTLHGILRVQSCFRGHQARRHARERIRGVLALQSFIRGENARKMYSSLARKHRAAIILQRNLKCWLARRYFVNIRKASVVIQSGIRGCLVRRCAGNVDLLNVLREFESKKE
notes: as for B2
Regarding B4, the binding result in [4] is reported as “binds”.

B5: Elicitor responsive protein, bait fragment aa 50-145 (other)
chain: PEWNETFMFSVTHNATELIIKLMDSDSGTDDDFVGEATISLEAIYTEGSIPPTVYNVVKEEEYRGEIKVGLTFTPEDDRDRGLSEEDIGGWKQSS
notes: bait; also called OsERP; PN20696
As to B5, the binding result in test [5] and in test [6] was “binds” in each case.

B6: OsSGT1, bait fragment aa 200-368 (other)
chain: QMLSVSIEVPGEEPYHFQPRLFSKIIPEKSRYQVLSTKVEIRLAKAEQITWTSLDYDKKPKAVPQKIIPPAESAQRPSYPSSKSKKDWDKLEAEVKKEEKEEKLEGDAALNKFFRDIYSDADEDMRRAMMKSFVESNGTVLSTNWKDVGSKKVEGSPPDGMELKKWEY
notes: bait; also called PN20285
Regarding B6, the binding result in test [7] is “binds”.

B7: Novel Protein PN29037, prey clone aa 73-165 (other)
chain: VVFDKDGVLEQIGEGKGYVDMSTVDAATSCKISEAIKQKGGAFVEAPVSGSKKPAEDGQLVILAAGDKVLYDDMVPAFDVLGKKSFFLGEIGN
notes: prey; AD fusion; input trait library; also called OsPN29037
B7: in [4], the binding result was “binds”.

B8: O. sativa Calreticulin Precursor, bait fragment aa 250-425 (other)
chain: PKEIPDPDAKKPEAGADEEDGEWTAPTIRNPEYKGPWKQKKIKNPNYQGKWKPPMIATPDFQDDPYIYAFDSLKSIGIELWQVKSGTLFDNILITDDAALAKTFAEETWAKHKDAEKAAFDEAEKKKEEEEAAKAGEDDDDLDDEDAEDEDKADEKADSDAEDGKDSDDEKHDEL
notes: bait; text says OsCRTC has 424 aa; also called OsCRTC; PN20544
As to B8, the binding result in test [8] and in test [9] was “binds” in each case.

B9: Hypothetical Protein 011994-D16, Similar to Z. mays DnaJ protein, prey clone aa 99-368 (other)
chain: FGPSFGGGGSSRGRRQRRGEDVIHPLKVSLEDLYNGTSKKLSLSRNVLCAKCKGKGSKSGASMRCPGCQGSGMKITIRQLGPSMIQQMQQPCNECKGTGESINEKDRCPGCKGEKVIQEKKVLEVHVEKGMQHNQKITFPGEADEAPDTVTGDIVFVLQQKDHSKFKRKGDDLFYEHTLSLTEALCGFQFVLTHLDNRQLLIKSNPGEVVKPDQFKAINDEGMPMYQRPFMKGKLYIHFTVEFPDSLAPEQCKALEAVLPPKPASQLTEM
notes: prey; AD fusion; output trait library; also called Os011994-D16; PN20618
Turning to B9, the binding result in test [1] is listed as “binds”.

B10: Receptor-like protein kinase-like PN31085, prey clone aa 378-553 (other)
chain: NGTISDSLGNLSELSDINLIGNNLTGHVPDSLTSLRLLQKLDLSGNDLTGPLPTFSPSVKVNVTGNLNFNGTAPGSAPSKDTPGSSSSRAPTLPGQGVLPENKKKRSAVVLATTIPVAVSVVALASVCAVLIFRKKRGSVPPNAASVVVHPRENSDPDNLVKIVMVNNDGNSSSTQ
notes: prey; AD fusion; output trait library
B10: the binding result in [10] is “binds”.

B11: O. sativa Glutelin CAA33838, prey clone aa 5-155 (other)
chain: VFSRFSIYFCVLLLCHGSMAQLFNPSTNPWHSPRQGSFRECRFDRLQAFEPLRKVRSEAGVTEYFDEKNELFQCTGTFVIRRVIQPQGLLVPRYTNIPGVVYIIQGRGSMGLTFPGCPATYQQQFQQFSSQGQSQSQKFRDEHQKIHQFRQ
notes: prey; AD fusion; output trait library; also called OsCAA33838; PN24775
Take B11: in [1], the binding result is given as “binds”.
